Drawing on publication PMC3762189, “Mechanism of synergistic activation of Arp2/3 complex by cortactin and N-WASP” (eLife, 2013), this text covers Kd for 1 molecule.

The experiment addresses G-actin (rabbit muscle actin monomers) (rabbit, UniProt P68135 1-377). The experiment is described as follows: fluorescence polarisation; competition: anisotropy of 50 nM Rhodamine-VCA with 150 nM G-actin and increasing VCA or VCA mutants; 10 mM Hepes pH 7.0, 50 mM KCl, 1 mM MgCl2, 1 mM EGTA, 1 mM DTT, 0.2 mM ATP, 350 nM Latrunculin B; KD is the mean of at least three fits. As to conditions: both partners purified. Background: Polarisation of emitted light reports the rotation of a fluorescent probe.

B1: N-WASP-VCA (domain or fragment)
chain: PVSCSGRDALLDQIRQGIQLKSVTDAPESTPPAPAPTSGIVGALMEVMQKRSKAIHSSDEDEDEDDDEDFEDDDEWED
notes: N-WASP, VCA region (verprolin homology, central, acidic); The text implies a GST tag with a TEV site on the VCA constructs; also called monomeric VCA; WT; source: purified as described previously (Hetrick et al., 2013)
What is called Kd is the concentration at which binding is half-saturated. As for B1, the affinity, expressed as Kd, was 560 ± 30 nM.
